# From the nanobody polyreactivity screen of Harvey et al. (2022)
# Assay: yeast display, Sf9 membrane polyspecificity reagent, FACS + sequencing; frameworks hold sequencing errors
# Method in brief: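 Genes from sorted yeast were amplified by colony PCR, read by MiSeq 2 × 250 sequencing and filtered on CDR length. These cells carried a synthetic nanobody library in Saccharomyces cerevisiae BJ5465 and were sorted by FACS into low and high (top ~1%) gates on anti-HA and streptavidin fluorescence. Polyreactivity is labelled according to the gate of origin.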
row,Sequence,polyreactivity (PSR sort gate)
1,QVQLVESGGGLVQAGGSLRLSCAASGRIFRYYVMGWYRQAPGKERELVAAITSGTSTNYADSVKGRFTISRDNAKNTVYLQMNSLKPEDTAVYYCAFRSPRGGRTRFNSNYWGQGTQVTVSS,high polyreactivity
2,QVQLVESGGGLVQAGGSLRLSCAASGRIFSAYTMGWYRQAPGNERELVAAIRWSGDSTYYADSVKGRFTISRDNAKNTVYLQKNSLKPEDTAVYYCAARDRWFPRYSSRYYSWGQGTQVSVSS,high polyreactivity
3,QVQLVESGGGLVQAGGSLRLSCAASGRIFSDNAMGWYREAPGKERELVAAITWSSGSTYADSVKGRFTISRDNAKNTVYLQMNSLKPEDTAVYYCNVSPGYEPLDHELDYWGQGTQVTVSS,low polyreactivity
4,QVQLVESGGGLVQAGGSLRLSCAASGRIFSDNAMGWYRQAPGKERELVAAITDRGGSTYYADSVKGRFTISRDNAQNTVYLQMNSLKPEDTAVYYCAARNTPAQLDYWGQGTQVTVSS,low polyreactivity
5,QVQLVESGGGLVQAGGSLRLSCAASGRIFSFNAMGWYRQAPGKERELVAGITYGGNTYYADSVKGRFTISRDNAKNTVYLQMNSLKPEDPAVYYCAAVRGGRHDYWGQGTQVTVSS,low polyreactivity
6,QVQLVESGGGLVQAGGSLRLSCAASGRIFSFNTMGWYRQAPGKEREFVATIRYSGGSTYADSVKGRFTISRDNAKNTVYLQMNSLKPEDTAVYYCAAAWWSYKFNRDFDYWGQGTQVTVSS,low polyreactivity
7,QVQLVESGGGLVQAGGSLRLSCAASGRIFSGNAMGWYRQAPRKERELVAAISRGGSTDYADSVKGRFTISRDNAKNTVYLQMNSLKPEDTAVYYCSARVNGKRRRYDYWGQGTQVTVSS,high polyreactivity
8,QVQLVESGGGLVQAGGSLRLSCAASGRIFSINALGWYRQAPGKEREFVATISDRGSTTSYADSVKGRFTISRDNAKNTVYLQMNSLKPEDTAVYYCAARSYYRYDYWGQGTQVTVSS,high polyreactivity
9,QVQLVESGGGLVQAGGSLRLSCAASGRIFSIYAMGWYRQAPGKERDMVAASSFRGTSTYADSVKGRFTISRDNAKNTVYLQMNWLKPEDTAVYYCAVTGFDVLWPSLGGELDYWGQGTQVTVSS,low polyreactivity
10,QVQLVESGGGLVQAGGSLRLSCAASGRIFSIYAMGWYRQAPGKERELVAAISKRGGSTSYADSVKGRFTISRDNAKNTVYLQMNSLKPEDTAVYYCNARGWIPARGWDDYYWGQGTQVTVSS,high polyreactivity
11,QVQLVESGGGLVQAGGSLRLSCAASGRIFSKYAMGLYRQAPEKERELVAAISGTGGSTYYADSVKGRFTISRDNSKNTVYLHMNSLKTEDTAVYYCAAEWYGRMYYWGQGTQVTVSS,high polyreactivity
12,QVQLVESGGGLVQAGGSLRLSCAASGRIFSLNAMGWYRQAPGKERELVAAISKRGGSTYYADSVKGRFTISRDNAKNTVYLQMNSLKPEDTAVYYCNKLGSLSGRYDYWGQGTQVTVSS,high polyreactivity
13,QVQLVESGGGLVQAGGSLRLSCAASGRIFSLYAMGWYRQAPGKEREFVAAISKSSGGTYYADSVKGRFTISRDNAKNTVYLQMNSLKPKDTAVYYCNARFVIGWVRKLDYWGQGTQVTVSS,high polyreactivity
14,QVQLVESGGGLVQAGGSLRLSCAASGRIFSLYAMGWYRQAPGKERELVAAISKRGGSTYYADSVKGRFTISRDNAKNTVYLQMNSLKPEDTAVYYCATQLPFRKPWHDYWGQGTQVTVSS,high polyreactivity
15,QVQLVESGGGLVQAGGSLRLSCAASGRIFSLYAMGWYRQAPGKERELVAAISSSGGRTYYADSVKGRFTISRDNAKNTVYLQMNSLKPEDTAVYYCADLVFSWWTFEYWGQGTQVTVSS,high polyreactivity
16,QVQLVESGGGLVQAGGSLRLSCAASGRIFSNNAMGWYRQAPGKERELVAAISSSGSTYYADSVKGRFTISRDNAKNTVYLQMNSLKPEDTAVYYCAVVYGYPYLRGYVYGFNYWGQGTQVTVSS,low polyreactivity
17,QVQLVESGGGLVQAGGSLRLSCAASGRIFSNNVMGWYIQAPGKERELVATISTDGRTNYADSVKGRFTISRDNAQNTVYLQMNSLKPEDTAVYFCAATGVTILLSSKSDYWGQGTQVTVSS,low polyreactivity
